The labels stand for the following.
B1: His6-HA-HNH&APIM (domain or fragment, UniProt Q5FWF4 929-1079, looked up)
chain: NSWDSRFCSLKCQEEFWIRSNNSYLRAKVFETEHGVCQLCNVNAQELFLRLRDAPKSQRKNLLYATWTSKLPLEQLNEMIRNPGEGHFWQVDHIKPVYGGGGQCSLDNLQTLCTVCHKERTARQAKERSQVRRQSLASKHGSDITRFLVKK
B2: His6-RNR-α (enzyme, human, UniProt P23921 1-792, looked up)
chain: MHVIKRDGRQERVMFDKITSRIQKLCYGLNMDFVDPAQITMKVIQGLYSGVTTVELDTLAAETAATLTTKHPDYAILAARIAVSNLHKETKKVFSDVMEDLYNYINPHNGKHSPMVAKSTLDIVLANKDRLNSAIIYDRDFSYNYFGFKTLERSYLLKINGKVAERPQHMLMRVSVGIHKEDIDAAIETYNLLSERWFTHASPTLFNAGTNRPQLSSCFLLSMKDDSIEGIYDTLKQCALISKSAGGIGVAVSCIRATGSYIAGTNGNSNGLVPMLRVYNNTARYVDQGGNKRPGAFAIYLEPWHLDIFEFLDLKKNTGKEEQRARDLFFALWIPDLFMKRVETNQDWSLMCPNECPGLDEVWGEEFEKLYASYEKQGRVRKVVKAQQLWYAIIESQTETGTPYMLYKDSCNRKSNQQNLGTIKCSNLCTEIVEYTSKDEVAVCNLASLALNMYVTSEHTYDFKKLAEVTKVVVRNLNKIIDINYYPVPEACLSNKRHRPIGIGVQGLADAFILMRYPFESAEAQLLNKQIFETIYYGALEASCDLAKEQGPYETYEGSPVSKGILQYDMWNVTPTDLWDWKVLKEKIAKYGIRNSLLIAPMPTASTAQILGNNESIEPYTSNIYTRRVLSGEFQIVNPHLLKDLTERGLWHEEMKNQIIACNGSIQSIPEIPDDLKQLYKTVWEISQKTVLKMAAERGAFIDQSQSLNIHIAEPNYGKLTSMHFYGWKQGLKTGMYYLRTRPAANPIQFTLNKEKLKDKEKVSKEEEEKERNTAAMVCSLENRDECLMCGS

The data set “His6-RNR-α” addresses B2. The experiment in a line: pull-down.
Data set [1] deals with the molecule itself. The experiment in a line: negative-stain electron microscopy.

These results are taken from article PMC6171530 (Nature chemical biology, 2018).

In the case of B1, in the data set with His6-RNR-α, the binding result was “binds”. In general, stoichiometry N refers to the number of molecules, sites or subunits per partner or assembly. Turning to B2, in data set [1], the “stoichiometry N” value stood at 6.
